The record followed here is the supplement of paper PMC10724198.

± gives the standard deviation of the averaged measurements.

Data set [1] concerns Saccharomyces cerevisiae. The experiment in a line: protein stability index of tFT-peptide fusion (C-terminal peptide) (PSI (0-1 scale)); higher = more stable (slower turnover). How it is done: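 MPS profiling in S. cerevisiae of the tFT-X12 degron library: putative degron peptides plus stable controls, 12 aa, fused to the C-terminus of a sfGFP-mCherry timer. Cells are FACS-sorted into 8 mCherry/sfGFP bins and deep-sequenced. PSI runs from 0 (unstable) to 1 (stable). Backgrounds are wild type, das1Δ and doa10Δ at 30 °C, and wild type, das1Δ, cdc34-1 and cdc53-1 at 37 °C; 2-3 technical replicates each.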

Data set [2] concerns Saccharomyces cerevisiae. The data set is described as above. The conditions noted are these: genetic background: wild type; temperature: 30 C.
The mark [3] stands for this setting: genetic background: cdc34-1, temperature: 37 C.
Setting [4] is: genetic background: cdc53-1, temperature: 37 C.
The mark [5] stands for this setting: genetic background: das1 deletion, temperature: 30 C.
The mark [6] stands for this setting: genetic background: das1 deletion, temperature: 37 C.
[7] abbreviates: genetic background: doa10 deletion, temperature: 30 C.
Setting [8] is: genetic background: wild type, temperature: 30 C.
[9] abbreviates: genetic background: wild type, temperature: 37 C.
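Further: PSI is a weighted mean of sequencing reads over stability bins, variants kept only with over 10 reads, mCherry proximal and sfGFP distal, peptide attached via GGGS linker.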

Take VLLSFVFCGWVR: the protein stability index in the data set on Saccharomyces cerevisiae [1] (setting [3]) was 0.458 ± 0.014; with Saccharomyces cerevisiae [1] (setting [4]) it was 0.4842 ± 0.0018; in the data set with Saccharomyces cerevisiae [1] (setting [5]), 0.345 ± 0.027; in the data set on Saccharomyces cerevisiae [1] (setting [6]), 0.516 ± 0.0096; in the data set with Saccharomyces cerevisiae [1] (setting [7]) it was 0.326 ± 0.013; in the data set with Saccharomyces cerevisiae [1] (setting [8]), 0.349 ± 0.025. In addition, the protein stability index in the data set on Saccharomyces cerevisiae [1] (setting [9]) came to 0.4963 ± 0.0042; in the data set with Saccharomyces cerevisiae [2], 0.442 ± 0.019.

Take VLLVSVFVATLL: the protein stability index in the data set on Saccharomyces cerevisiae [1] (setting [3]) worked out at 0.124 ± 0.013; with Saccharomyces cerevisiae [1] (setting [4]) it was 0.256 ± 0.0095; with Saccharomyces cerevisiae [1] (setting [5]), 0.143 ± 0.033; in the data set on Saccharomyces cerevisiae [1] (setting [6]) it was 0.334 ± 0.0086; in the data set with Saccharomyces cerevisiae [1] (setting [7]), 0.113 ± 0.0087; with Saccharomyces cerevisiae [1] (setting [8]) it was 0.135 ± 0.022. Also, the values for the protein stability index in the data set with Saccharomyces cerevisiae [1] (setting [9]) and in the data set with Saccharomyces cerevisiae [2] were 0.284 ± 0.0077 and 0.21 ± 0.012, respectively.

For the sequence VLVVASLRFSFF, the protein stability index in the data set on Saccharomyces cerevisiae [1] (setting [3]) amounted to 0.207 ± 0.054; with Saccharomyces cerevisiae [1] (setting [4]), 0.34 ± 0.036; in the data set on Saccharomyces cerevisiae [1] (setting [5]) it was 0.197 ± 0.029; with Saccharomyces cerevisiae [1] (setting [6]), 0.40083 ± 0.00033; in the data set with Saccharomyces cerevisiae [1] (setting [7]) it was 0.173 ± 0.019; with Saccharomyces cerevisiae [1] (setting [8]), 0.2 ± 0.014. In addition, the protein stability index in the data set with Saccharomyces cerevisiae [1] (setting [9]) is 0.38 ± 0.0063; in the data set on Saccharomyces cerevisiae [2] it was 0.249 ± 0.017.

In the case of VLVVRVLLSDLV, the protein stability index was 0.178 ± 0.02 in the data set on Saccharomyces cerevisiae [1] (setting [3]); 0.255 ± 0.021 in the data set with Saccharomyces cerevisiae [1] (setting [4]); 0.18 ± 0.028 in the data set with Saccharomyces cerevisiae [1] (setting [5]); 0.36571 ± 8.9e-05 in the data set on Saccharomyces cerevisiae [1] (setting [6]); 0.157 ± 0.012 in the data set on Saccharomyces cerevisiae [1] (setting [7]); 0.17 ± 0.012 with Saccharomyces cerevisiae [1] (setting [8]). Further, the protein stability index was determined as 0.338 ± 0.01 with Saccharomyces cerevisiae [1] (setting [9]) and 0.262 ± 0.0089 in the data set with Saccharomyces cerevisiae [2].

Turning to VLVVWLGICFGY, the protein stability index in the data set with Saccharomyces cerevisiae [1] (setting [3]) turned out to be 0.166 ± 0.014; with Saccharomyces cerevisiae [1] (setting [4]) it was 0.201 ± 0.046; in the data set on Saccharomyces cerevisiae [1] (setting [5]), 0.191 ± 0.033; with Saccharomyces cerevisiae [1] (setting [6]), 0.37 ± 0.0092; with Saccharomyces cerevisiae [1] (setting [7]), 0.187 ± 0.0077; in the data set with Saccharomyces cerevisiae [1] (setting [8]), 0.201 ± 0.016. The values for the protein stability index with Saccharomyces cerevisiae [1] (setting [9]) and with Saccharomyces cerevisiae [2] were 0.299 ± 0.0044 and 0.259 ± 0.011, respectively.

On to VMYRGVRISWFL, for which the protein stability index was found to be 0.576 ± 0.036 in the data set on Saccharomyces cerevisiae [1] (setting [3]); 0.582 ± 0.008 in the data set with Saccharomyces cerevisiae [1] (setting [4]); 0.424 ± 0.021 with Saccharomyces cerevisiae [1] (setting [5]); 0.504 ± 0.014 with Saccharomyces cerevisiae [1] (setting [6]); 0.343 ± 0.04 with Saccharomyces cerevisiae [1] (setting [7]); 0.354 ± 0.036 in the data set with Saccharomyces cerevisiae [1] (setting [8]). In addition, the protein stability index in the data set on Saccharomyces cerevisiae [1] (setting [9]) came to 0.449 ± 0.0086; with Saccharomyces cerevisiae [2], 0.38459 ± 6.1e-05.

For VNILFCLFFLLV, the protein stability index in the data set with Saccharomyces cerevisiae [1] (setting [3]) is 0.449 ± 0.02; in the data set with Saccharomyces cerevisiae [1] (setting [4]), 0.554 ± 0.027; with Saccharomyces cerevisiae [1] (setting [5]), 0.419 ± 0.021; with Saccharomyces cerevisiae [1] (setting [6]), 0.564 ± 0.023; in the data set on Saccharomyces cerevisiae [1] (setting [7]), 0.392 ± 0.025; in the data set with Saccharomyces cerevisiae [1] (setting [8]) it was 0.36 ± 0.0062. In addition, the protein stability index with Saccharomyces cerevisiae [1] (setting [9]) was 0.4772 ± 0.0041; with Saccharomyces cerevisiae [2] it was 0.412 ± 0.013.

Turning to VPQMLVSVCLSN, the protein stability index in the data set on Saccharomyces cerevisiae [1] (setting [3]) amounted to 0.301 ± 0.014; in the data set on Saccharomyces cerevisiae [1] (setting [4]) it was 0.376 ± 0.045; in the data set with Saccharomyces cerevisiae [1] (setting [5]), 0.287 ± 0.032; in the data set on Saccharomyces cerevisiae [1] (setting [6]), 0.423 ± 0.021; in the data set on Saccharomyces cerevisiae [1] (setting [7]) it was 0.219 ± 0.014; with Saccharomyces cerevisiae [1] (setting [8]), 0.26 ± 0.029. The protein stability index with Saccharomyces cerevisiae [1] (setting [9]) is 0.392 ± 0.033; with Saccharomyces cerevisiae [2] it was 0.348 ± 0.011.

On to VPQQWFAETGRC, for which the protein stability index with Saccharomyces cerevisiae [1] (setting [3]) was determined as 0.72 ± 0.031; with Saccharomyces cerevisiae [1] (setting [4]), 0.763 ± 0.036; in the data set with Saccharomyces cerevisiae [1] (setting [5]) it was 0.668 ± 0.026; in the data set with Saccharomyces cerevisiae [1] (setting [6]), 0.7455 ± 0.0051; in the data set with Saccharomyces cerevisiae [1] (setting [7]) it was 0.657 ± 0.038; in the data set with Saccharomyces cerevisiae [1] (setting [8]), 0.662 ± 0.028. For the same sequence, the protein stability index in the data set with Saccharomyces cerevisiae [1] (setting [9]) came to 0.742 ± 0.014; in the data set with Saccharomyces cerevisiae [2] it was 0.745 ± 0.019.

For the sequence VRFPVFFIILFL, the protein stability index with Saccharomyces cerevisiae [1] (setting [3]) was 0.0864 ± 0.024; in the data set on Saccharomyces cerevisiae [1] (setting [4]) it was 0.0743 ± 0.0032; in the data set with Saccharomyces cerevisiae [1] (setting [5]), 0.15 ± 0.029; in the data set with Saccharomyces cerevisiae [1] (setting [6]) it was 0.235 ± 0.017; with Saccharomyces cerevisiae [1] (setting [7]), 0.241 ± 0.014; with Saccharomyces cerevisiae [1] (setting [8]), 0.142 ± 0.029. The values for the protein stability index in the data set on Saccharomyces cerevisiae [1] (setting [9]) and in the data set on Saccharomyces cerevisiae [2] were 0.202 ± 0.0029 and 0.239 ± 0.018, respectively.

In the case of VRGSPNVMWKSQ, the protein stability index in the data set on Saccharomyces cerevisiae [1] (setting [3]) came to 0.675 ± 0.028; in the data set on Saccharomyces cerevisiae [1] (setting [4]), 0.778 ± 0.01; in the data set on Saccharomyces cerevisiae [1] (setting [5]), 0.647 ± 0.028; in the data set on Saccharomyces cerevisiae [1] (setting [6]), 0.733 ± 0.028; in the data set on Saccharomyces cerevisiae [1] (setting [7]) it was 0.194 ± 0.0042; in the data set with Saccharomyces cerevisiae [1] (setting [8]), 0.238 ± 0.022. Further, the figures for the protein stability index in the data set on Saccharomyces cerevisiae [1] (setting [9]) and in the data set with Saccharomyces cerevisiae [2] were 0.508 ± 0.033 and 0.398 ± 0.035, respectively.

As to VRLHIAMWLRRC, the protein stability index amounted to 0.299 ± 0.02 in the data set with Saccharomyces cerevisiae [1] (setting [3]); 0.271 ± 0.022 in the data set on Saccharomyces cerevisiae [1] (setting [4]); 0.316 ± 0.027 in the data set on Saccharomyces cerevisiae [1] (setting [5]); 0.414 ± 0.007 with Saccharomyces cerevisiae [1] (setting [6]); 0.138 ± 0.015 in the data set with Saccharomyces cerevisiae [1] (setting [7]); 0.0999 ± 0.025 in the data set with Saccharomyces cerevisiae [1] (setting [8]). For the same sequence, the protein stability index is 0.18975 ± 1.6e-05 in the data set with Saccharomyces cerevisiae [1] (setting [9]) and 0.14 ± 0.027 in the data set on Saccharomyces cerevisiae [2].

Take VRNKFSYVLRLN: the protein stability index worked out at 0.488 ± 0.024 in the data set on Saccharomyces cerevisiae [1] (setting [3]); 0.678 ± 0.014 with Saccharomyces cerevisiae [1] (setting [4]); 0.615 ± 0.016 with Saccharomyces cerevisiae [1] (setting [5]); 0.747 ± 0.0094 with Saccharomyces cerevisiae [1] (setting [6]); 0.0804 ± 0.019 in the data set on Saccharomyces cerevisiae [1] (setting [7]); 0.11 ± 0.029 in the data set with Saccharomyces cerevisiae [1] (setting [8]). For the same sequence, the protein stability index turned out to be 0.138 ± 0.037 in the data set with Saccharomyces cerevisiae [1] (setting [9]) and 0.179 ± 0.016 in the data set with Saccharomyces cerevisiae [2].

As for VRVLPFCWCIVR, the protein stability index with Saccharomyces cerevisiae [1] (setting [3]) came out at 0.177 ± 0.03; in the data set with Saccharomyces cerevisiae [1] (setting [4]) it was 0.14 ± 0.0084; in the data set with Saccharomyces cerevisiae [1] (setting [5]), 0.188 ± 0.028; in the data set on Saccharomyces cerevisiae [1] (setting [6]), 0.288 ± 0.005; in the data set with Saccharomyces cerevisiae [1] (setting [7]), 0.263 ± 0.019; with Saccharomyces cerevisiae [1] (setting [8]) it was 0.187 ± 0.017. Further, the protein stability index with Saccharomyces cerevisiae [1] (setting [9]) is 0.259 ± 0.046; in the data set on Saccharomyces cerevisiae [2], 0.274 ± 0.0053.

On to VSIVLHSVPCGG, for which the protein stability index in the data set on Saccharomyces cerevisiae [1] (setting [3]) was 0.514 ± 0.029; with Saccharomyces cerevisiae [1] (setting [4]), 0.5211 ± 0.0032; in the data set on Saccharomyces cerevisiae [1] (setting [5]), 0.389 ± 0.019; in the data set on Saccharomyces cerevisiae [1] (setting [6]) it was 0.54459 ± 0.0005; in the data set on Saccharomyces cerevisiae [1] (setting [7]) it was 0.361 ± 0.011; in the data set with Saccharomyces cerevisiae [1] (setting [8]), 0.392 ± 0.024. For the same sequence, the results for the protein stability index with Saccharomyces cerevisiae [1] (setting [9]) and in the data set with Saccharomyces cerevisiae [2] were 0.519 ± 0.011 and 0.453 ± 0.035, respectively.

Regarding VSRVHIRIEGNH, the protein stability index came out at 0.694 ± 0.027 in the data set on Saccharomyces cerevisiae [1] (setting [3]); 0.755 ± 0.028 in the data set with Saccharomyces cerevisiae [1] (setting [4]); 0.622 ± 0.017 with Saccharomyces cerevisiae [1] (setting [5]); 0.7218 ± 0.0064 in the data set with Saccharomyces cerevisiae [1] (setting [6]); 0.635 ± 0.026 in the data set on Saccharomyces cerevisiae [1] (setting [7]); 0.634 ± 0.035 with Saccharomyces cerevisiae [1] (setting [8]). For the same sequence, the protein stability index was found to be 0.70121 ± 0.00047 in the data set on Saccharomyces cerevisiae [1] (setting [9]) and 0.528 ± 0.082 in the data set with Saccharomyces cerevisiae [2].

Regarding VSVQVRCCPWVG, the protein stability index in the data set with Saccharomyces cerevisiae [1] (setting [3]) worked out at 0.679 ± 0.037; in the data set with Saccharomyces cerevisiae [1] (setting [4]), 0.735 ± 0.013; in the data set with Saccharomyces cerevisiae [1] (setting [5]), 0.622 ± 0.011; in the data set on Saccharomyces cerevisiae [1] (setting [6]), 0.728 ± 0.014; in the data set with Saccharomyces cerevisiae [1] (setting [7]), 0.618 ± 0.031; in the data set with Saccharomyces cerevisiae [1] (setting [8]) it was 0.629 ± 0.016. Further, the protein stability index in the data set with Saccharomyces cerevisiae [1] (setting [9]) turned out to be 0.709 ± 0.011; with Saccharomyces cerevisiae [2] it was 0.7153 ± 0.0063.
